The target in test [1] is MBP-LbpB (lactoferrin binding protein B, N. meningitidis MC58, without amino acids 1-15) (Neisseria meningitidis strain MC58). As to the kind of experiment: cross-linking; XL-MS: LbpB (MBP fusion or TEV-cleaved) and hLf equimolar in 50 mM Tris-HCl, 50 mM NaCl, pH 7.4, 4 h RT, DSS 30 min, bands cut from SDS-PAGE, LC-MS/MS.
For test [2], the target named is LbpB with the anionic loops removed (LbpB-lgsm), N-terminal biotin acceptor peptide, fused to MBP (BLI construct) (Neisseria meningitidis strain MC58). As to the kind of experiment: BLI; Octet RED 96; biotinylated MBP-LbpB constructs loaded from crude E. coli extracts on streptavidin sensors; holo-hLf 10-800 nM in 1 X PBS pH 7.4, 0.002% Tween-20, 0.1 mg/mL BSA; steady-state fit, apparent KD.

Test [3] has as its target LbpB N-terminal lobe with N-terminal biotin acceptor peptide, fused to MBP (BLI construct) (Neisseria meningitidis strain MC58). The description is as above.
Test [4] addresses intact LbpB with N-terminal biotin acceptor peptide, fused to MBP (BLI construct) (Neisseria meningitidis strain MC58). The test is described as above.
For test [5], the target named is LbpB (N. meningitidis MC58, without amino acids 1-15) after TEV cleavage of MBP-LbpB (Neisseria meningitidis strain MC58). The test can be described thus: cross-linking; XL-MS: LbpB (MBP fusion or TEV-cleaved) and hLf equimolar in 50 mM Tris-HCl, 50 mM NaCl, pH 7.4, 4 h RT, DSS 30 min, bands cut from SDS-PAGE, LC-MS/MS.
In test [6] the target is MBP-LbpB (lactoferrin binding protein B, N. meningitidis MC58, without amino acids 1-15) (Neisseria meningitidis strain MC58). Described as above. The source holds these as a separate data set.
Test [7] addresses transferrin (Homo sapiens) (UniProt P02787). Particulars: cited from earlier work.

Several values for one entry are separate records, joined by “and”; a condition that tells them apart may be missing. Equal entries are not always repeated. Where two headings read alike, the source gives them in different places.

Chain of transferrin (Homo sapiens) (P02787 20-698): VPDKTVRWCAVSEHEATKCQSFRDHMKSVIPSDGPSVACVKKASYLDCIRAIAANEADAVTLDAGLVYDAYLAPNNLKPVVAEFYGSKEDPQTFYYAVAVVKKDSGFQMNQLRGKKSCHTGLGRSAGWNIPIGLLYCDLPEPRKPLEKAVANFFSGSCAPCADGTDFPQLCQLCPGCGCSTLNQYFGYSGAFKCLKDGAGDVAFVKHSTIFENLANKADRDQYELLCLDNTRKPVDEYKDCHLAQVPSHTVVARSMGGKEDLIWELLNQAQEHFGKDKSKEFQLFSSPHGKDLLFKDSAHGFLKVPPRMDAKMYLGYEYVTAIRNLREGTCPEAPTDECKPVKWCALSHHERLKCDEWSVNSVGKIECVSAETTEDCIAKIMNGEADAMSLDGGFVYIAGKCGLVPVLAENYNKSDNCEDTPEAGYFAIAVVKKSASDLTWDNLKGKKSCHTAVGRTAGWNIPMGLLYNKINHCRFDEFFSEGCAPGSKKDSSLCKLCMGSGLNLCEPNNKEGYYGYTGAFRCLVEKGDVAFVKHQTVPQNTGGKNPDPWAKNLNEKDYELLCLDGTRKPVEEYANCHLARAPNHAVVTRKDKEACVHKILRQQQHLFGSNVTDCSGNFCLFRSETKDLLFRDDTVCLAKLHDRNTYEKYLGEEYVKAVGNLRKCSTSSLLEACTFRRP

Turning to “holo human lactoferrin (iron-loaded hLf) (ligand)”, the stoichiometry N in test [1] is 2 hLf:LbpB; in test [5], 1 hLf:LbpB and 2 hLf:LbpB; in test [6], 1 hLf:LbpB. In addition, the Kd turned out to be 140 nM in test [2], 126 nM in test [3] and 72.8 nM in test [4].

Take TbpB (from UniProt Q09057): the Kd in test [7] is 50 nM.

Source of the values: paper PMC5352143.
